Experiments:
[1] = E3-STn allograft model, complete blood count (CBC); format: in vivo, mouse; set-up: White blood cells Level: unit not given here; conditions: CBC at end of study, 5 mice
Protocol: At the end of the study, a complete blood count (CBC) was obtained for 5 mice treated with antibody as well as 3 mice treated with vehicle control. Blood was collected from all mice via terminal cardiac puncture and processed for plasma. Blood was placed in EDTA microtainer tubes (BD & Co., Franklin Lakes, N.J.) then centrifuged. Plasma layers were then removed and snap frozen in cryo vials (Thermo-Fisher Scientific, Rochester, N.Y.) and stored at −80° C. until analysis. Analysis was carried out to look for levels of a variety of factors.

[2] = Glycan array, Tn and other glycans; format: binding; conditions: glycan microarray
Protocol: Optimized glycan arrays comprise 71 chemically synthesized and well-defined glycans, most of which comprise Neu5Ac and Neu5Gc glycan pairs.
300 ml of epoxy blocking buffer is prepared by combining 15 ml of 2 M Tris buffer (pH 8) with 0.9 ml of 16.6 M ethanolamine and 284.1 ml of distilled water. The solution was brought to a final pH of 9.0 with HCl. The solution is filtered using a 0.2 μM nitrocellulose membrane. The epoxy buffer solution as well as 1 L of distilled water are pre-warmed to 50° C. Glass slides are arranged in a slide holder and quickly submerged in a staining tub with the warmed epoxy blocking buffer. Slides are incubated in the epoxy blocking buffer for 1 hour at 50° C. with periodic shaking to deactivate epoxy binding sites. Next, slides are rinsed and blocked with PBS with 1% OVA at 25° C. for one hour. Serum samples with polyclonal antibodies (1:1000) or purified monoclonal antibodies (1 ug/mL), are diluted in PBS with 1% OVA and added to the glycan array for one hour at 25° C. After extensive washing, binding of antibodies are detected by incubating glycan microarray slides with Cy3-conjugated anti-mouse IgG (Jackson Immunoresearch, West Grove, Pa.) for one hour. Slides are then washed extensively, dried and scanned with a Genepix 4000B scanner (Laser at 100%; gain at 350; 10 μm pixels). […]

[3] = PAA-glycan ELISA, GcSTn-PAA; format: binding; conditions: 200 ng/well PAA antigen; 1:5 dilutions from 1 μM
Protocol: 18D2 and 18C7 antibodies were further characterized by ELISA comprising antigens other than BSM. ELISAs were carried out according to Example 2, with the exception that ELISA plates were coated with biotinylated polyacrylamide (PAA) particles comprising either AcSTn (AcSTn-PAA), GcSTn (GcSTn-PAA) or Tn (Tn-PAA) as antigens. These particles present the antigens in a multivalent format. Briefly, 96-well ELISA plates were coated with 200 ng/well of each PAA antigen and blocked with PBS with 1% OVA. Antibodies were serially diluted at 1:5 in PBS with 1% OVA using an initial concentration of 1 μM. After blocking, antibodies were added to the plates and plates were incubated for 1.5 hours at room temperature. Binding of anti-STn antibodies was detected using a goat anti-mouse IgG-HRP conjugated antibody (Jackson Immunoresearch Laboratories, West Grove, Pa.). The reaction was developed by addition of HRP substrate and hydrogen peroxide. The reaction was then stopped by the addition of sulfuric acid (1.6 M). Optical densities were measured at 490 nm. A dose-response curve was generated using readings at each concentration tested and a non-linear regression curve was generated with four-parameter modeling to determine EC50 values for each antibody.

[4] = MDA-MB-231-STn xenograft model, percent body weight change; format: in vivo, mouse; conditions: 5 mg/kg i.p. once weekly
Excerpt: To evaluate antibody drug conjugates (ADCs) as single agents in an MDA-MB-231-STn Human Breast Tumor Xenograft model, 40 ICR SCID female mice age range 6-8 weeks were randomly separated into four separate groups, one vehicle control and three ADC treatments, then maintained individually with food/water ad libitum (see the following Table).
Animals were inoculated in the subcutaneous right flank with 5×10^6 breast tumor cells (MDA-MB-231-STn) in matrigel, mean tumor size was 175-225 mm^3 at study initiation. Animals were given either vehicle or antibody drug conjugates (5 mg/kg) by intraperitoneal injection once weekly. Tumor volume and percent body weight change were determined once weekly until study termination. The study was terminated when the tumor in the vehicle control animal reached a mean tumor weight ≥1500 mm^3. SE refers to “standard error.”

MDA-MD-231 STn− cells = assay: Fluorescence microscopy of ALEXA FLUOR 488-S3F binding and internalization, STn− cells; format: cell-based, human
Protocol: To analyze the internalization of antibodies by fluorescence microscopy, the following procedure was carried out. MDA-MD-231 STn− cells and MDA-MD-231 STn+ cells were cultured in Eagles minimum essential medium containing 10% fetal calf serum, 100 μg/ml penicillin, 100 UI/ml streptomycin, 45 μg/ml gentamycin, as well as 1 mg/ml G418 for STn+ cells. Cells were sub-cultured by treatment with Accutase buffer and seeded in microscope chamber slides at 10,000 cells/chamber in the case of STn− cells and 20,000 cells/chamber in the case of STn+ cells. All cells were cultured overnight at 37° C. Cells were subsequently incubated with either 1.5, 5 or 10 μg/ml S3F conjugated with ALEXA FLUOR® 488 dye (Thermo Fisher Scientific, Pittsburgh, Pa.) in complete media at 4° C. for 1 hour. Cells were then washed with ice-cold PBS in order to remove antibodies that were not bound to the cell surface. Complete media was then administered to each chamber and the cells were incubated at 37° C. for either 0, 15, 30 or 60 minutes in order to allow internalization of any surface-bound antibodies.
Following each time point, cells were washed twice with PBS in order to remove unbound antibodies. […] Cells were visualized the following day by analysis on a Nikon Eclipse Ti fluorescence microscope.

B1: 7G9: anti-STn mouse monoclonal, IgG2b κ, from mouse #4407; VH SEQ ID NO: 12, VL SEQ ID NO: 9 (antibody, V domains shown)
VH: QVQLKESGPGLVAPSQNLSITCTVSGFSLTSYGVNWVRQPPGKGLEWLGVIWGDGSTNYHSALISRLIISKENSKSQVFLKLNSLQTNDTATYYCTKGFVYWGQGTLVTVSA
VL: QIVLTQSPAIMSASPGEKVTMTCSASSSVSYMHWYQQKSGTSPKRWIFDTSKLASGVPARFSGSGSGTSYSLTISSMEAEDAATYYCQQWSSNLLTFGAGTKLELK
- % Lymphocytes Level [1]: 44.4%
- % Monocytes Level [1]: 4.6%
- % Neutrophils (Segmented) Level [1]: 51.0%
- Hematocrit Level [1]: 46.9%
- Hemoglobin Level [1]: 16.0 g/dL
- Lymphocytes Level [1]: 5.6 10^9/L
- Mean Corpuscular Hemoglobin Concentration Level [1]: 34.2 g/dL
- Mean Corpuscular Hemoglobin Level [1]: 16.2 pg
- Mean Corpuscular Volume Level [1]: 47.4 fL
- Mean platelet volume Level [1]: 7.4 fL
- Monocytes Level [1]: 0.7 10^9/L
- Neutrophils Level [1]: 7.6 10^9/L
- Platelet Cell Distribution Width Level [1]: 32.2%
- Platelet count Level [1]: 712.2 10^3
- Red Cell Distribution Width Level [1]: 19.0%
- Red blood cells Level [1]: 9.9 10^6/L
- White blood cells Level [1]: 13.9

B2: 18C7: anti-STn mouse monoclonal, IgG2c κ, from mouse #4436; VH SEQ ID NO: 4, VL SEQ ID NO: 5 (antibody, V domains shown)
VH: QVTLKESGPGILQPSQTLSLTCSFSGFSLSTFGMGVGWIRQPSGKGLEWLAHIWWDDDKYYNPALKSRLTISKDTSKNQVFLKIANVDTADTATYYCARIAYYYGSERDYWGQGTTLTVSS
VL: QIVLTQSPAIMSASPGEKVTMTCSASSSISYMHWYHQKPGTSPKRWIYDTSKLASGVPARFSGSGSGTSYSLTISSMEAEDAATYYCHQRSSYTFGGGTKLEIKR
- binding to Tn antigen or other glycans [2]: No binding
- EC50 [3]: 2.59 nM

B3: S3F: 3F1 variable domains combined with IgG2a constant domains; heavy chain SEQ ID NO: 63, light chain SEQ ID NO: 64 (antibody)
heavy: QVQLQQSDAELVKPGASVKISCKASGYTFTDHAIHWVKQKPEQGLDWIGYISPGNGDIKYNEKFKDKVTLTADKSSSTACMHLNSLTSEDSAVYFCKRSLLALDYWGQGTTLTVSSAKTTAPSVYPLAPVCGDTTGSSVTLGCLVKGYFPEPVTLTWNSGSLSSGVHTFPAVLQSDLYTLSSSVTVTSSTWPSQSITCNVAHPASSTKVDKKIEPRGPTIKPCPPCKCPAPNLLGGPSVFIFPPKIKDVLMISLSPIVTCVVVDVSEDDPDVQISWFVNNVEVHTAQTQTHREDYNSTLRVVSALPIQHQDWMSGKEFKCKVNNKDLPAPIERTISKPKGSVRAPQVYVLPPPEEEMTKKQVTLTCMVTDFMPEDIYVEWTNNGKTELNYKNTEPVLDSDGSYFMYSKLRVEKKNWVERNSYSCSVVHEGLHNHHTTKSFSRTPGK
light: DIVMTQSHKFMSTSVGDRVSITCKASQDVGTNIAWYQQKPGRSPKVLIYSASTRHTGVPDRFTGSGSGTDFTLTISNVQSEDLTDYFCQQYSSFPLTFGVGTKLELKRADAAPTVSIFPPSSEQLTSGGASVVCFLNNFYPKDINVKWKIDGSERQNGVLNSWTDQDSKDSTYSMSSTLTLTKDEYERHNSYTCEATHKTSTSPIVKSFNRNEC
- body weight at study termination [4]: overall increase in body weight
- Percent Body Weight Change ([4]; study day 1): 0%
- Percent Body Weight Change ([4]; study day 4): −0.01%
- Percent Body Weight Change ([4]; study day 8): −1.29%
- Percent Body Weight Change ([4]; study day 10): −1.36%
- Percent Body Weight Change ([4]; study day 15): −1.09%
- Percent Body Weight Change ([4]; study day 18): −0.51%
- Percent Body Weight Change ([4]; study day 23): 1.49%
- Percent Body Weight Change ([4]; study day 25): 2.17%
- internalization by STn− cells (MDA-MD-231 STn− cells; 37° C. 15-60 min, acid wash): not efficiently internalized by STn− cells
- binding to the surface of STn− cells (MDA-MD-231 STn− cells; 488-S3F conjugate at 1.5, 5, 10 μg/ml, 4° C.): does not bind the surface of STn− cells

Reference: patent US20180280504A1, “GLYCAN-INTERACTING COMPOUNDS AND METHODS OF USE” (SIAMAB THERAPEUTICS, INC., priority 2014, published 2018)
